Data taken from the supplement of paper PMC9170038.

System: K4 kissing-loop RNA reporter
Assay: apparent KD of K4 kissing-loop reporter; higher = weaker reporter binding
Settings: Eterna round: R107
Protocol: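 RNA-MaP round R107: designed RNA switches with theophylline, tryptophan, arginine or FMN aptamers are transcribed on-chip within common flanks. They are titrated with a labelled K4 kissing-loop RNA reporter in RNA-MaP buffer (100 mM Tris pH 7.5, 80 mM KCl, 4 mM MgCl2), without ligand or with the indicated ligand. Median apparent KD per design.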

[1] = input ligand: theophylline 20 uM
[2] = input ligand: tryptophan 2.4 mM
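Note: bound reporter read as fluorescence of individual clusters on recovered sequencing chips by microscopy, with normalized cluster intensities fitted with a binding model.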

UAGGGCAUCGCAGGAUAUCCUGCUUAACGUUGGAUUCCAGUGAUGUUGGAAAGCCGGCCUAGGGUAGGAGAAGGGCGGACUUGAA [Riteteve]
apparent KD of K4 kissing-loop reporter (input ligand: FMN 200 uM): 160 nM
apparent KD of K4 kissing-loop reporter (input ligand: arginine 13.2 mM): 167 nM
apparent KD of K4 kissing-loop reporter (input ligand: none): 167 nM
apparent KD of K4 kissing-loop reporter [1]: 187 nM
apparent KD of K4 kissing-loop reporter [2]: 242 nM

AAAUUCUUUUUUUUAUUUAACUUUUCAGAAGGAGCGUGGUAGUACACAGGUAGGUCGCUGAAUAUAAGACUAGUGAUGUUAGUUA [JR_SSArginiA_Sub009]
apparent KD of K4 kissing-loop reporter (input ligand: FMN 200 uM): 172 nM
apparent KD of K4 kissing-loop reporter (input ligand: arginine 13.2 mM): 190 nM
apparent KD of K4 kissing-loop reporter (input ligand: none): 235 nM
apparent KD of K4 kissing-loop reporter [1]: 215 nM
apparent KD of K4 kissing-loop reporter [2]: 165 nM

GUUACGCAUGGAAGGAGCGCAGGCUCAACAAAUAGCUCAGUGAUGUUGAGCAUAUUAAAUCUGCAGGUAGGUCGCCAUGUGUAAC [Ex Arginine B K4 24]
apparent KD of K4 kissing-loop reporter (input ligand: FMN 200 uM): 498 nM
apparent KD of K4 kissing-loop reporter (input ligand: arginine 13.2 mM): 500 nM
apparent KD of K4 kissing-loop reporter (input ligand: none): 504 nM
apparent KD of K4 kissing-loop reporter [1]: 559 nM
apparent KD of K4 kissing-loop reporter [2]: 581 nM

CCUAUCUCAUACGAUACCAGUCAAAUAAAUUAUAACGAGUGAUGUUCGAAAUGCCAUCACGACCCUUGGCAGCGUAUGGGAUAGG [Ex Theophylline B K4 1]
apparent KD of K4 kissing-loop reporter (input ligand: FMN 200 uM): 304 nM
apparent KD of K4 kissing-loop reporter (input ligand: arginine 13.2 mM): 123 nM
apparent KD of K4 kissing-loop reporter (input ligand: none): 212 nM
apparent KD of K4 kissing-loop reporter [1]: 186 nM
apparent KD of K4 kissing-loop reporter [2]: 125 nM

CCUUCUCUUGAUAGUGAUGUUGUCAAGGGCAAGGAUAUCAUCUUAAUGAGAAGGUGUCCUUGAUAACAUGGAGGUCUGAAACAGA [Omei KL FMN A Exc C v7]
apparent KD of K4 kissing-loop reporter (input ligand: FMN 200 uM): 123 nM
apparent KD of K4 kissing-loop reporter (input ligand: arginine 13.2 mM): 305 nM
apparent KD of K4 kissing-loop reporter (input ligand: none): 301 nM
apparent KD of K4 kissing-loop reporter [1]: 380 nM
apparent KD of K4 kissing-loop reporter [2]: 375 nM

CGAGUCCUGAGGAGUGAUGUUCCUCGGCCACGAGGACCGGUACGGCCGCCACUCGUUACUCGGGCUUAGCAGCAAGCACUAAGCU [Acesote]
apparent KD of K4 kissing-loop reporter (input ligand: FMN 200 uM): 348 nM
apparent KD of K4 kissing-loop reporter (input ligand: arginine 13.2 mM): 317 nM
apparent KD of K4 kissing-loop reporter (input ligand: none): 334 nM
apparent KD of K4 kissing-loop reporter [1]: 302 nM
apparent KD of K4 kissing-loop reporter [2]: 127 nM

AAAAUAACCCAGUGAUGUUGGUAUGCAGAUACCAGCGACGAAAGUCGCCCUUGGCAGCUGUGGACGUACAAAAUAAGUACGUCCU
apparent KD of K4 kissing-loop reporter (input ligand: FMN 200 uM): 1230 nM
apparent KD of K4 kissing-loop reporter (input ligand: arginine 13.2 mM): 834 nM
apparent KD of K4 kissing-loop reporter (input ligand: none): 1420 nM
apparent KD of K4 kissing-loop reporter [1]: 1220 nM
apparent KD of K4 kissing-loop reporter [2]: 1520 nM

UAUGAAGGUGGAGGAUAUUGAUUGAAUCUUGGUCAGGAGUGAUGUUCCGGGAAGCCUUGGAUUCAUCGAGAAGGCCAAGGAUAGU [Extra 3]
apparent KD of K4 kissing-loop reporter (input ligand: FMN 200 uM): 123 nM
apparent KD of K4 kissing-loop reporter (input ligand: arginine 13.2 mM): 344 nM
apparent KD of K4 kissing-loop reporter (input ligand: none): 344 nM
apparent KD of K4 kissing-loop reporter [1]: 330 nM
apparent KD of K4 kissing-loop reporter [2]: 327 nM

GCUAUGGUAGGAAGGAGCGCGGACGGUAUUUGUCGAGUGAUGUUCGAUUCUUUAAUUUGAACGCAGGUAGGUCGCCUACUAUAGC [Arginine B K4 30]
apparent KD of K4 kissing-loop reporter (input ligand: FMN 200 uM): 214 nM
apparent KD of K4 kissing-loop reporter (input ligand: arginine 13.2 mM): 183 nM
apparent KD of K4 kissing-loop reporter (input ligand: none): 226 nM
apparent KD of K4 kissing-loop reporter [1]: 258 nM
apparent KD of K4 kissing-loop reporter [2]: 221 nM

CCAAGGUGCUUCUGUUCAGUGAUGUUGGUACGAGGACCGGUACGGCCGCCACUCGCCGUACAAUCGCUAGUUAAUCAUUGGCAAG [theeternabot_exclusion_KL_Trp_A_40]
apparent KD of K4 kissing-loop reporter (input ligand: FMN 200 uM): 667 nM
apparent KD of K4 kissing-loop reporter (input ligand: arginine 13.2 mM): 408 nM
apparent KD of K4 kissing-loop reporter (input ligand: none): 660 nM
apparent KD of K4 kissing-loop reporter [1]: 441 nM
apparent KD of K4 kissing-loop reporter [2]: 256 nM

AAAAUAAAUAGCAGUCAUGGAGUGAUGUUCCGAGGACCGGUACGGCCGCCACUCGACCAUCAUAAGAUGGAAUGGCGAGACUGCA [#SwitchBubble 22 #K4Early]
apparent KD of K4 kissing-loop reporter (input ligand: FMN 200 uM): 252 nM
apparent KD of K4 kissing-loop reporter (input ligand: arginine 13.2 mM): 288 nM
apparent KD of K4 kissing-loop reporter (input ligand: none): 249 nM
apparent KD of K4 kissing-loop reporter [1]: 362 nM
apparent KD of K4 kissing-loop reporter [2]: 520 nM

UGUGAGCUGUCGACAAAAGUCGACUAAAGCGAGGAUAUGACGAAAGUCAGAAGGCGUCAAUAAUGGAGUGAUGUUCCUGCUCACU [FmnA 9 G29]
apparent KD of K4 kissing-loop reporter (input ligand: FMN 200 uM): 306 nM
apparent KD of K4 kissing-loop reporter (input ligand: arginine 13.2 mM): 436 nM
apparent KD of K4 kissing-loop reporter (input ligand: none): 596 nM
apparent KD of K4 kissing-loop reporter [1]: 489 nM
apparent KD of K4 kissing-loop reporter [2]: 406 nM

AAAACUAUCAGAAGGAGCGUGGAAUAUUCAUCUAUAUUUAAUACGAGUGAUGUUCGUAAUUCACAGGUAGGUCGCUGAUCAAUAA [JR_ExcArginiB_Sub007]
apparent KD of K4 kissing-loop reporter (input ligand: FMN 200 uM): 214 nM
apparent KD of K4 kissing-loop reporter (input ligand: arginine 13.2 mM): 251 nM
apparent KD of K4 kissing-loop reporter (input ligand: none): 233 nM
apparent KD of K4 kissing-loop reporter [1]: 273 nM
apparent KD of K4 kissing-loop reporter [2]: 171 nM

CAGAACUUGUAUACAGGGCAUGCCAGAGAUACCAGUCAAAUGGAAGGCCCUUGGCAGCUCAGGCGAGUGAUGUUCGCAGGCUGAC [Exclusion Theophylline A GF 19]
apparent KD of K4 kissing-loop reporter (input ligand: FMN 200 uM): 140 nM
apparent KD of K4 kissing-loop reporter (input ligand: arginine 13.2 mM): 122 nM
apparent KD of K4 kissing-loop reporter (input ligand: none): 116 nM
apparent KD of K4 kissing-loop reporter [1]: 131 nM
apparent KD of K4 kissing-loop reporter [2]: 133 nM

AUAAUUAUGACGGCCGCCACUGAGAGUAGUGAUGUUACUCUUUUCCUUUAGUAAUAAUUUUUUAUCAGGACCGGGUUAUUUGAAU [JR_Nu_ExcTryptoB_Sub027]
apparent KD of K4 kissing-loop reporter (input ligand: FMN 200 uM): 68.7 nM
apparent KD of K4 kissing-loop reporter (input ligand: arginine 13.2 mM): 67.2 nM
apparent KD of K4 kissing-loop reporter (input ligand: none): 70.2 nM
apparent KD of K4 kissing-loop reporter [1]: 64.4 nM
apparent KD of K4 kissing-loop reporter [2]: 83.9 nM

UGACUGGAUGGAAGGAGCGCUAAACUCCUAGUGAUGUUAGGGAAAUGAGACAAAGUCUCAAGGCAGGUAGGUCGCCAUCUAGUCU [FiskerMod 16 - Jieux - Same State - Arginine B]
apparent KD of K4 kissing-loop reporter (input ligand: FMN 200 uM): 142 nM
apparent KD of K4 kissing-loop reporter (input ligand: arginine 13.2 mM): 78.6 nM
apparent KD of K4 kissing-loop reporter (input ligand: none): 174 nM
apparent KD of K4 kissing-loop reporter [1]: 506 nM
apparent KD of K4 kissing-loop reporter [2]: 177 nM

AGGCACGAGCAAGGAUAUUGAGUAGAGUGAUGUUCUGCCUAAGUUGGCUCGAAAGAGCCUUCUUAGCGAGAAGGUGCUCGUGCCU [#2 Same State - FMN A Attempt #26 (HarryS)]
apparent KD of K4 kissing-loop reporter (input ligand: FMN 200 uM): 297 nM
apparent KD of K4 kissing-loop reporter (input ligand: arginine 13.2 mM): 534 nM
apparent KD of K4 kissing-loop reporter (input ligand: none): 666 nM
apparent KD of K4 kissing-loop reporter [1]: 812 nM
apparent KD of K4 kissing-loop reporter [2]: 763 nM

ACGUAGUACGUAGGAUAUCAGAGAUCAGUUAGUGAGAUCGAGUGAUGUUCGAUCAUGUGUUCAUUUUGAGAAGGAUGUAGUAGGA [KL-SSFMN-B6]
apparent KD of K4 kissing-loop reporter (input ligand: FMN 200 uM): 302 nM
apparent KD of K4 kissing-loop reporter (input ligand: arginine 13.2 mM): 302 nM
apparent KD of K4 kissing-loop reporter (input ligand: none): 366 nM
apparent KD of K4 kissing-loop reporter [1]: 358 nM
apparent KD of K4 kissing-loop reporter [2]: 228 nM

UGAUCACAGUGAUGUUGUGGCAAAAGUGAUACCAGCCGUGUACGAGGCCCUUGGCAGCACCAGGGCUGUACGUCGUUAGAUCCGG [theeternabot_exclusion_KL_Theo_A_33]
apparent KD of K4 kissing-loop reporter (input ligand: FMN 200 uM): 211 nM
apparent KD of K4 kissing-loop reporter (input ligand: arginine 13.2 mM): 156 nM
apparent KD of K4 kissing-loop reporter (input ligand: none): 194 nM
apparent KD of K4 kissing-loop reporter [1]: 177 nM
apparent KD of K4 kissing-loop reporter [2]: 169 nM

AAAUAGAUCAGUCAUCCAGUGAUGUUGGAAGGAGCGUGCGAAAGCACAGGUAGGUCGCCAAAAUAAAAGUGGCUGAUCAAAAUAA
apparent KD of K4 kissing-loop reporter (input ligand: FMN 200 uM): 629 nM
apparent KD of K4 kissing-loop reporter (input ligand: arginine 13.2 mM): 374 nM
apparent KD of K4 kissing-loop reporter (input ligand: none): 302 nM
apparent KD of K4 kissing-loop reporter [1]: 594 nM
apparent KD of K4 kissing-loop reporter [2]: 302 nM

GGUUCUGGUUUGGAGUGAUGUUCUAAGUGGCAGGAUAUGGAGAGAUCCAGAAGGGCCGUUUGUAUCUUUUUUGUGUGGUUUUUUU [Last Minute #2]
apparent KD of K4 kissing-loop reporter (input ligand: FMN 200 uM): 132 nM
apparent KD of K4 kissing-loop reporter (input ligand: arginine 13.2 mM): 195 nM
apparent KD of K4 kissing-loop reporter (input ligand: none): 231 nM
apparent KD of K4 kissing-loop reporter [1]: 206 nM
apparent KD of K4 kissing-loop reporter [2]: 160 nM

AGUCCACUCUAAAGAGUGGACCUAAGGGAUACCAGUGAUGUUGGUCACCCUUGGCAGCCCGCUGUCAUCGAUAAAGAUGGCAGUA
apparent KD of K4 kissing-loop reporter (input ligand: FMN 200 uM): 125 nM
apparent KD of K4 kissing-loop reporter (input ligand: arginine 13.2 mM): 107 nM
apparent KD of K4 kissing-loop reporter (input ligand: none): 112 nM
apparent KD of K4 kissing-loop reporter [1]: 121 nM
apparent KD of K4 kissing-loop reporter [2]: 117 nM
